T1: scSmc4(598-923) condensin hinge/coiled coil with V721C and M821C (S. cerevisiae, UniProt Q12267 598-923, V721C | M821C)
T1 construct: Smc4, S. cerevisiae condensin, residues 598-923; also called scSmc4 hinge; source: Sf9, co-purified with scSmc2 hinge (Strep-Tactin XT, cation exchange, SEC)
T1 sequence (looked up): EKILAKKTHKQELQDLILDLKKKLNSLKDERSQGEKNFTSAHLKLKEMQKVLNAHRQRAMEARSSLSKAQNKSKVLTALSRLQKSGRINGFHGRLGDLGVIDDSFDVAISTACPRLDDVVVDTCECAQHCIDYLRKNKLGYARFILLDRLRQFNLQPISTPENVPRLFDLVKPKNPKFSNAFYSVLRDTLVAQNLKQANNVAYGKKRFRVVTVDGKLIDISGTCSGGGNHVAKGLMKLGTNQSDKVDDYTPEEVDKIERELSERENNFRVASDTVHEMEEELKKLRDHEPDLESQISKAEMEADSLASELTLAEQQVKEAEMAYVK


Legend:
[1] = target: the molecule itself; test: cross-linking; cysteine cross-linking with BMOE (1 mM, 45 s, quenched with DTT) of purified hinge/coiled coil constructs in 20 mM Tris-HCl, 50 mM NaCl; SDS-PAGE, and denaturing agarose gels of entrapped ssDNA circles
[2] = target: T1, scSmc4(598-923) condensin hinge/coiled …; test: cross-linking; cysteine cross-linking with BMOE (0.58 mM, 6 min on ice) of purified scSmc2/4 hinge, 1.4 µM in CB buffer (50 mM NaCl, 1 mM MgCl2, 50 mM HEPES pH 7.5, 1 mM TCEP, 5 % glycerol); SDS-PAGE; conditions: both partners purified

binding result [2]	Binder	binding result [1]
–	bsuSmc(400-776; C437S, R558C, N634C) hinge/coiled coil (domain or fragment, B. subtilis, UniProt P51834 400-776, looked up, Smc (chromosome partition protein Smc), Bacillus subtilis, residues 400-776; also called bsuSmc hinge; B. subtilis Smc hinge; source: E. coli BL21(DE3) Gold, purified (as the scSmc5/6 hinge constructs: HisTrap, SEC)) QLLDDQMSQSAVTLQRLADNNEKHLQERHDISARKAASETEFARIEQEIHSQVGAYRDMQTKYEQKKRQYEKNESALYQAYQYVQQARSKKDMLETMQGDFSGFYQGVKEVLKAKERLGGIRGAVLELISTEQKYETAIEIALGASAQHVVTDDEQSACKAIQYLKQNSFGRATFLPLSVIRDRQLQSRDAETAARHSSFLGVASELVTFDPAYRSVIQNLLGTVLITEDLKGACELAKLLGHRYRIVTLEGDVVNPGGSMTGGAVKKKNNSLLGRSRELEDVTKRLAEMEEKTALLEQEVKTLKHSIQDMEKKLADLRETGEGLRLKQQDVKGQLYELQVAEKNINTHLELYDQEKSALSESDEERKVRKRKLEEE	binds
binds	scSmc2(443-740) condensin hinge/coiled coil with S560C and K639C (domain or fragment, S. cerevisiae, UniProt P38989 443-740, looked up, Smc2, S. cerevisiae condensin, residues 443-740; also called scSmc2 hinge; source: Sf9, co-purified with scSmc4 hinge (Strep-Tactin XT, cation exchange, SEC)) KDNELNVKHVKQCQETCDKLRARLVEYGFDPSRIKDLKQREDKLKSHYYQTCKNSEYLKRRVTNLEFNYTKPYPNFEASFVHGVVGQLFQIDNDNIRYATALQTCAGGRLFNVVVQDCQTATQLLERGRLRKRVTIIPLDKIYTRPISSQVLDLAKKIAPGKVELAINLIRFDESITKAMEFIFGNSLICEDPETACKITFHPKIRARSITLQGDVYDPEGTLSGGSRNTSESLLVDIQKYNQIQKQIETIQADLNHVTEELQTQYATSQKTKTIQSDLNLSLHKLDLAKRNLDANPS	–

From paper PMC12647877, “The SMC Hinge is a Selective Gate for Obstacle Bypass” (Nature Communications, 2025)
